Experiment [1] addresses T1, human IL-23R endogenously expressed on DB cells (human, UniProt Q5VWK5 24-629).
T1 sequence (looked up): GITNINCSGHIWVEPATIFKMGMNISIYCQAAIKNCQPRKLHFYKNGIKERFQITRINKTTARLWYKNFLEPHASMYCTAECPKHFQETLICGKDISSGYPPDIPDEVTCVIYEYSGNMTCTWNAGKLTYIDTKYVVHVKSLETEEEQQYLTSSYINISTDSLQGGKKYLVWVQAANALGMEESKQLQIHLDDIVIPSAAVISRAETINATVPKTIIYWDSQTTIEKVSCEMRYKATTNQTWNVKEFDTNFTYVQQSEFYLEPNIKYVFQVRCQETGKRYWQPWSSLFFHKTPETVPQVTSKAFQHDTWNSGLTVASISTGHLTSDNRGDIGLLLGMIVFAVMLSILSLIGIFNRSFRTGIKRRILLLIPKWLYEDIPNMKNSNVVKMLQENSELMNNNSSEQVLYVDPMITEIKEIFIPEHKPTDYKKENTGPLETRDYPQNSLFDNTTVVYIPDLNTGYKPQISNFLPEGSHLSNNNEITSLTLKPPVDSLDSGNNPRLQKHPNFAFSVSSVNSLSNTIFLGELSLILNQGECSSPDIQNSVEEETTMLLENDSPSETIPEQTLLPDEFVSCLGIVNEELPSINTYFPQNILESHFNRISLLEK
Description: cell-based or functional assay.

In experiment [2] the target is T2, Nluc-IL23R fusion protein (human, UniProt Q5VWK5 22-629).
T2 construct: range 22-629; Stably expressed in HEK293 cells; also called hIL-23R; human IL-23R; not shown: Nanoluc protein (N1371, Promega) at the N-terminus, after a secretion signal
T2 sequence (looked up): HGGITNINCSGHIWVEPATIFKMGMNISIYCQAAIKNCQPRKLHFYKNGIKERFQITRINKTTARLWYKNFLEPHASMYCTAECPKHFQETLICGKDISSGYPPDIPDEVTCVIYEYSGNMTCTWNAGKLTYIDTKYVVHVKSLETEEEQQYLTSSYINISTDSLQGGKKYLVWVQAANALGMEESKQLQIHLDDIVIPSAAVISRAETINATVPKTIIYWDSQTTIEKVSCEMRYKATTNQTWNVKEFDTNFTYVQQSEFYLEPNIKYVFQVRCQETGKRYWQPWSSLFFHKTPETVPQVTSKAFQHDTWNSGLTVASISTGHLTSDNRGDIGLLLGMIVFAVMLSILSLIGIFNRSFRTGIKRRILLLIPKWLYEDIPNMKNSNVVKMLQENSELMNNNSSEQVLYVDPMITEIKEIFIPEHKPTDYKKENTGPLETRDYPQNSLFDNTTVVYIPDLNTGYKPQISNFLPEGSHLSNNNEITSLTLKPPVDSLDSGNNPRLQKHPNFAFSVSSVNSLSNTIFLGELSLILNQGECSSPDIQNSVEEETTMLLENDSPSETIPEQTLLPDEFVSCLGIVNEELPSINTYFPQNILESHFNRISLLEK
Description: BRET competition vs TAMRA-labelled peptide, Nluc-IL23R membranes. Also: test concentration or dose not given here.

The results in this text go back to EP4471048A1, “PEPTIDE INHIBITORS OF INTERLEUKIN-23 RECEPTOR” (Zealand Pharma A/S, priority 2023, dated 2024).

*1 amine or outer side, *2 acyl side, *3 side chain or, on linkers, in order; H or OH if unused. Bridges are numbered along the chain shown (N, C = ends). Primed or numbered codes have the meaning given here. Where no end group is shown, it is not given here. [ ]: non-standard residue; d: D form. 4‑Aminomethyl‑phenylacetyl = 4-aminomethyl-phenylacetyl unit, its amine closes the lactam, O=C(Cc1ccc(CN[*:1])cc1)[*:2]; 1,3‑dibromopropan‑2‑one″ = linker forming 1,3-dithio-propan-2-one bridge -SCH2C(=O)CH2S- between two Cys; (N3)‑K = lysine with the alpha-amine converted to an azide, [N-]=[N+]=N[C@@H](CCCCN[*:3])C(=O)[*:2]; bLys = L-beta-lysine, (3S)-3,6-diaminohexanoic acid, O=C(C[C@H](CCCN[*:3])N[*:1])[*:2]; 2Nal = N[C@@H](Cc1ccc2ccccc2c1)C(=O)O; AEF = NCCOc1ccc(C[C@H](N)C(=O)O)cc1; 3Pal = N[C@@H](Cc1cccnc1)C(=O)O; αMeL = CC(C)C[C@](C)(N)C(=O)O; CH2COCH2 = O=C(C[*:1])C[*:2]; NMeK = CN[C@@H](CCCCN)C(=O)O; dOrn = NCCC[C@@H](N)C(=O)O; 3Amb = NCc1cccc(C(=O)O)c1; NMeS = CN[C@@H](CO)C(=O)O; dDab = NCC[C@@H](N)C(=O)O; Orn = NCCC[C@H](N)C(=O)O; Pra = C#CC[C@H](N)C(=O)O; Dab = NCC[C@H](N)C(=O)O; βAla = NCCC(=O)O

B1: Ref 78 (peptide)
peptide: [3Amb]SCWQC[AEF][2Nal][αMeL]ER[3Pal]-NH2
modifications: lactam N-10; linker 3-6 via 1,3‑dibromopropan‑2‑one″
Turning to B1, in experiment [1], the “hIL-23 (pSTAT3) antagonist % inhibition” value was determined as 100% and the “hIL-23 (pSTAT3) antagonist IC50” value is 0.13 nM. The % displacement in experiment [2] amounted to 100%.

B2: Compound 10 (peptide)
peptide: [dOrn]TVWQD[AEF][2Nal][αMeL]E[Dab][3Pal]-NH2
modifications: lactam 1-10, N-6
SMILES: CC(C)C[C@]1(C)NC(=O)[C@H](Cc2ccc3ccccc3c2)NC(=O)[C@H](Cc2ccc(OCCN)cc2)NC(=O)[C@@H]2CC(=O)N[C@H](CCCNC(=O)CC[C@@H](C(=O)N[C@@H](CCN)C(=O)N[C@@H](Cc3cccnc3)C(N)=O)NC1=O)C(=O)N[C@@H]([C@@H](C)O)C(=O)N[C@@H](C(C)C)C(=O)N[C@@H](Cc1c[nH]c3ccccc13)C(=O)N[C@@H](CCC(N)=O)C(=O)N2
For the molecule B2, the % displacement in experiment [2] was 107%.

B3: Compound 42 (peptide)
peptide: XTWQXXXXEXX
modifications: not fully specified; [{d}(N3)-K](1c)(6g)^†TWQ[Hpg](6g)[Y(2-aminoethoxy)][2-Nal][2-Me-Leu]E(1c)[Dab][3-(3-Pyridyl)-Ala]-[NHMe]; (1c) [2,11] lactam; (6g) [2,7] 1,4-disubstituted 1,2,3-triazole bridge; ^† alpha-amine converted into an azide in bridge
The molecule B3 had a % displacement in experiment [2] of 96%.

B4: Compound 12 (peptide)
peptide: [bLys]TVWQE[AEF][2Nal][αMeL]E[Dab][3Pal]-NH2
modifications: lactam 1-10, N-6
Consider B4, for which the “hIL-23 (pSTAT3) antagonist % inhibition” value in experiment [1] was determined as 100%. In experiment [2], this molecule displayed a % displacement of 104%.

B5: Ref 80 (peptide)
peptide: [4‑Aminomethyl‑phenylacetyl]SCWQC[AEF][2Nal][αMeL]E[dR]-NH2
modifications: lactam N-10; linker 3-6 via 1,3‑dibromopropan‑2‑one″
Consider B5, for which, in experiment [1], the “hIL-23 (pSTAT3) antagonist % inhibition” value worked out at 97% and the “hIL-23 (pSTAT3) antagonist IC50” value came out at 11 nM. The molecule further came in with a % displacement in experiment [2] of 98%.

B6: Compound 41 (peptide)
peptide: [(N3)‑K]TWQ[Pra][AEF][2Nal][αMeL]E[Dab][3Pal]-NHMe
modifications: lactam 1-9; triazole (positions not given here); not fully specified (bridges); printed as [(N₃)-K](1c)(6g)^{†}TWQ[Pra](6g)[Y(2-aminoethoxy)][2-Nal][2-Me-Leu]E(1c)[Dab][3-(3-Pyridyl)-Ala]-[NHMe]
B6 came in with a % displacement in experiment [2] of 98%.

B7: Compound 60 (peptide)
peptide: KIVWQE[AEF][2Nal][αMeL]E[Dab][3Pal]-NHMe
modifications: lactam 1-10, N-6
SMILES: CC[C@H](C)[C@@H]1NC(=O)[C@@H]2CCCCNC(=O)CC[C@@H](C(=O)N[C@@H](CCN)C(=O)N[C@@H](Cc3cccnc3)C(=O)NC)NC(=O)[C@](C)(CC(C)C)NC(=O)[C@H](Cc3ccc4ccccc4c3)NC(=O)[C@H](Cc3ccc(OCCN)cc3)NC(=O)[C@H](CCC(=O)N2)NC(=O)[C@H](CCC(N)=O)NC(=O)[C@H](Cc2c[nH]c3ccccc23)NC(=O)[C@H](C(C)C)NC1=O
As to B7, in experiment [1], the “hIL-23 (pSTAT3) antagonist % inhibition” value worked out at 101% and the “hIL-23 (pSTAT3) antagonist IC50” value came out at 0.63 nM. For the same molecule, in experiment [2], the % displacement came out at 95%.

B8: Compound 102 (peptide)
peptide: [iso‑Lys]WQE[AEF][2Nal][αMeL]E[Dab][3Pal]-NHMe
modifications: lactam (positions not given here); not fully specified (bridges); printed as [iso-Lys](1c)^†(6c)WQE(6c)[Y(2-aminoethoxy)][2-Nal][2-Me-Leu]E(1c)[Dab][3-(3-Pyridyl)-Ala]-[NHMe], (1c) [2,11] lactam, (6c) [2,7] lactam, ^† alpha-amine in bridge
As to B8, the % displacement in experiment [2] is 97%.

B9: Compound 91 (peptide)
peptide: [Orn][βAla]WQE[AEF][2Nal][αMeL]E[Dab][3Pal]-NHMe
modifications: lactam 1-9, 1-5; not fully specified; printed as [Orn](1c)(6c)^†[3-Aminopropanoyl]WQE(6c)[Y(2-aminoethoxy)][2-Nal][2-Me-Leu]E(1c)[Dab][3-(3-Pyridyl)-Ala]-[NHMe], (1c) [2,11] lactam, (6c) [2,7] lactam, ^† alpha-amine in bridge; also: alpha-amine of residue 1 in bridge, which of the two lactams not given here
In experiment [2], B9 had a % displacement of 100%.

B10: Compound 80 (peptide)
peptide: [NMeK][βAla]WQE[AEF][2Nal][αMeL]E[Dab][3Pal]-NHMe
modifications: lactam 1-9, 1-5; not fully specified; printed as [N-Me-Lys](1c)(6c)^†[3-Aminopropanoyl]WQE(6c)[Y(2-aminoethoxy)][2-Nal][2-Me-Leu]E(1c)[Dab][3-(3-Pyridyl)-Ala]-[NHMe], (1c) [2,11] lactam, (6c) [2,7] lactam, ^† alpha-amine in bridge; also: alpha-amine of residue 1 in bridge, which of the two lactams not given here
The molecule B10 showed a % displacement in experiment [2] of 102%.

B11: Compound 43 (peptide)
peptide: KWQE[AEF][2Nal][αMeL]E[Dab][3Pal]-NHMe
modifications: lactam 1-8, N-4
SMILES: CNC(=O)[C@H](Cc1cccnc1)NC(=O)[C@H](CCN)NC(=O)[C@@H]1CCC(=O)NCCCC[C@@H]2NC(=O)CC[C@H](NC(=O)[C@H](CCC(N)=O)NC(=O)[C@H](Cc3c[nH]c4ccccc34)NC2=O)C(=O)N[C@@H](Cc2ccc(OCCN)cc2)C(=O)N[C@@H](Cc2ccc3ccccc3c2)C(=O)N[C@@](C)(CC(C)C)C(=O)N1
For B11, the % displacement in experiment [2] worked out at 100%.

B12: Compound 106 (peptide)
peptide: [iso‑Glu]WQE[AEF][2Nal][αMeL]K[Dab][3Pal]-NHMe
modifications: lactam 1-8, N-4; also: iso-Glu: alpha-carboxylic acid in bridge
Consider B12, for which the % displacement in experiment [2] worked out at 99%.

B13: Ref 41 (peptide)
peptide: [3Amb]SCWQC[AEF][2Nal][αMeL]E[dR]-NH2
modifications: lactam N-10; linker 3-6 via 1,3‑dibromopropan‑2‑one″
On to B13, for which, in experiment [1], the “hIL-23 (pSTAT3) antagonist % inhibition” value came to 99% and the “hIL-23 (pSTAT3) antagonist IC50” value was 29 nM. The same molecule gave a % displacement in experiment [2] of 110%.

B14: Ref 141 (peptide)
peptide: [4‑Aminomethyl‑phenylacetyl][NMeS]CWQC[AEF][2Nal][αMeL]E[Dab]-NH2
modifications: lactam N-10; linker 3-6 via CH2COCH2
In the case of B14, the % displacement in experiment [2] is 102%.

B15: Compound 110 (peptide)
peptide: K[βAla]WQEW[2Nal][αMeL]E[Dab][3Pal]-NHMe
modifications: lactam 1-9, N-5
SMILES: CNC(=O)[C@H](Cc1cccnc1)NC(=O)[C@H](CCN)NC(=O)[C@@H]1CCC(=O)NCCCC[C@@H]2NC(=O)CC[C@H](NC(=O)[C@H](CCC(N)=O)NC(=O)[C@H](Cc3c[nH]c4ccccc34)NC(=O)CCNC2=O)C(=O)N[C@@H](Cc2c[nH]c3ccccc23)C(=O)N[C@@H](Cc2ccc3ccccc3c2)C(=O)N[C@@](C)(CC(C)C)C(=O)N1
With B15, the % displacement in experiment [2] came to 100%.

B16: Ref 52 (peptide)
peptide: [4‑Aminomethyl‑phenylacetyl]SCWQC[AEF][2Nal][αMeL]ER-NH2
modifications: lactam N-10; linker 3-6 via 1,3‑dibromopropan‑2‑one″
B16: in experiment [1], the “hIL-23 (pSTAT3) antagonist % inhibition” value worked out at 103% and the “hIL-23 (pSTAT3) antagonist IC50” value was 7.8 nM. This molecule also returned a % displacement in experiment [2] of 100%.

B17: Compound 11 (peptide)
peptide: [dDab]TVWQD[AEF][2Nal][αMeL]E[Dab][3Pal]-NH2
modifications: lactam 1-10, N-6
SMILES: CC(C)C[C@]1(C)NC(=O)[C@H](Cc2ccc3ccccc3c2)NC(=O)[C@H](Cc2ccc(OCCN)cc2)NC(=O)[C@@H]2CC(=O)N[C@H](CCNC(=O)CC[C@@H](C(=O)N[C@@H](CCN)C(=O)N[C@@H](Cc3cccnc3)C(N)=O)NC1=O)C(=O)N[C@@H]([C@@H](C)O)C(=O)N[C@@H](C(C)C)C(=O)N[C@@H](Cc1c[nH]c3ccccc13)C(=O)N[C@@H](CCC(N)=O)C(=O)N2
Turning to B17, the % displacement in experiment [2] was determined as 104%.
